Assay: yeast display, Sf9 membrane polyspecificity reagent, FACS + sequencing; frameworks hold sequencing errors
Procedure, shortened: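 Sorting gates, low and high (top ~1%), were placed on anti-HA fluorescence to track expression and on streptavidin fluorescence to track reagent binding. A clone's polyreactivity label is taken from the gate it came out of. The reagent was 10% biotinylated, detergent-solubilized Sf9 membrane, applied for 1 hour at 4 °C to galactose-induced yeast display cells.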

Row | Sequence | polyreactivity (PSR sort gate)
1 | QVQLVESGGGLVKAGGSLRLSCAASGRIFVGYGMGWYRQAPGKERELVAAITSSGGSTYYADSVKGRFTISRDNAKNTVYLQMNILKPEDTAVYYCAAERGYHVGGSGLYDYWGQGTQVNVSS | low polyreactivity
2 | QVQLVESGGGLVKAGGSLRLSCAASGRIIEKYAMGWYRQAHGKEREFVAAIDWSGGSTYYADSVKGRFTISRDNAKNTVSLQKNSLKPEDTAVYYCAAYWYYEDGQSEARLYGYDYWGQGTQVTVSS | low polyreactivity
3 | QVQLVESGGGLVKAGGSLRLSCAASGRTFASYAMGWYRQAPGKERELVAVITRGGRTYYADSVKGRFTISRDNAKNTVYLQMNSLKPEDTAVYYCNAAYYSSSYLEDYWGQGTQVTVSS | high polyreactivity
4 | QVQLVESGGGLVKAGGSLRLSCAASGRTFGDNAMGWYRQAPGKERELVAAIRWGGGSTYYADSVKGRFTISRDNAKNTVYLQMNSLKPEDTAVYYCAKKGWSSHDRAWYIYDYWGQGSQVTVSS | low polyreactivity
5 | QVQLVESGGGLVKAGGSLRLSCAASGRTFSRYAMGWYRQAPGTEGEVVAAISYSGASTYYADSVKGRFTISRDNAKNTVYLQMNSLKPEDTAVSYCAARAPGPAPPQIRYGYWGQGTQVTVSS | high polyreactivity
6 | QVQLVESGGGLVKAGGSLRLSCAASGRTFVYNAMGWYRQAPGKERELVADIDGGGDRTYYADSVKGRFTISRDNAKNKVFLQMNSLKPEDTAVYYCARDPGDTYYYSYPEGDYWGQGTQVTVSS | low polyreactivity
7 | QVQLVESGGGLVKAGGSLRLSCAASGRTFYVNAMGWYRQAPGKEREFVAAISRRGGSTYYADSVKGRFTISRDNAKNTVYFQLNSLKPEDTAVYYCATGYHRWSSWALDYWGQGTQVTVSS | high polyreactivity
8 | QVQLVESGGGLVKAGGSLRLSCAASGSIFDGNAMGWYRQAPGKERELVADISRGGSTYYADSVKGRFTISRDNAKNTVYLLMNSLKPEDTAVYYCNVEFFFWPYEYGYWGQGTQVTVSS | low polyreactivity
9 | QVQLVESGGGLVKAGGSLRLSCAASGSIFQSNAMGWYRQAPGKERELVAAIRTSSGGGTYADSVKGRFTISRDNAKNTVYLQINSLKPEDTAVYDCNARKNNGGKWGYDYWGQGTQVTVSS | high polyreactivity
10 | QVQLVESGGGLVKAGGSLRLSCAASGSIIGFYAMGWYILAPGKERELVAAITRGGGSTFYADSVKGRFTFSRDNAKNTVYLQMNSLKPEDTAVYYCAATVYRYHGPGYYYWGQGTQVTVSS | high polyreactivity
11 | QVQLVESGGGLVKAGGSLRLSCAASGSISSGYVMGWYRQAPGKERELVASISYSGTSTYYADSVKGRFTISRDNAKNTVYLQMNSLKPEDTAVYYCAALSRRRFGYWGQGTQVTVSS | high polyreactivity
12 | QVQLVESGGGLVKAGGSLRLSCAASGSTFERYAMGCYRQAPGKEMELVAAINWSGGGTYYADSVKGRFTISRDNAKNTVYLQMNSLKPVDTAVYYCAADSGTVVFSLWWYEYYYWGQGTQVTVSS | low polyreactivity
13 | QVQLVESGGGLVKAGGSLRLSCAASGSTFRYYVMGWYRQAPGNERELVAAISRGGRTYYADSVKGRFTISRDNAKYSVYLQMNSLKPEDTAVYYCAVDYIVQSGSRIAGDYWGQGTQVTVSS | high polyreactivity
14 | QVQLVESGGGLVKAGGSLRLSCAASGSTFVGYAMGWYRQAPGKEREIVAAITRGGSTNYADSVKGRFTISRDNAKNTVYLQMNSLKPEDTAVYYCAARDRREGFNFDYWGQGTQVTVSS | low polyreactivity
15 | QVQLVESGGGLVKAGGSLRLSCAASGYNFIVYTMGWYRQAPGKERELVAAISSGGITDYADSVKGRFTISRDNAKNTDYLQMNSLNPEDTAVYYWGQGTQVTVSS | low polyreactivity
16 | QVQLVESGGGLVKAGGSLRLSCAASGYTFLFNVMGWYRQAPGKEREIFATIRYSGGSTYYADSVKGRFTISRDNAKNTVYLQMNSLKPEDTAVYYCAARYAWYTSYCSRKYDYWGQGTQVTVSS | high polyreactivity
17 | QVQLVESGGGLVKAGGSLRLSCAASGYTFRSYAMGWYRQAPGKEREKVARITFRGTSTYADSVKGRFTISRDNAKNTVYLQMNSLKPEESAVYYCNTSRAPWGNGYKRYDYWGQGTQVTVSS | low polyreactivity
18 | QVQLVESGGGLVKAGGSLRLSCDASGSILWENAMGWYRQAPGKERELVATISVSGGGTYYADSVKGRFTISRDNAKNTVYLQMNSLKPEDTAVYYCNARYGNESQGWEDYWGKGTQVTVSS | low polyreactivity
19 | QVQLVESGGGLVKAGGSLRLSCSASGSTFRSNAMGWYRQAPGKERELVAGISSGGGTYYADSVKGRFTISRDNAKNTVYLQMNSLKPEDTAVYYCAKVVYFGWSVQYYYWGQGTQVTVSS | low polyreactivity
20 | QVQLVESGGGLVKAGGSLRLTCAASGSIFRYYAMGWYRQAPGKERELVAAISGSGGSTYYADSVKGRFTISRDNAKNTVYLQMNSLKPEDTAVYYCARVRGCYDKMYYWGQGTQVTVSS | high polyreactivity
21 | QVQLVESGGGLVKAGGSLSLICAASGFTFGVYAMGRYRQAPGKERELVAAIRRTGGSTYYADSVKGRFTISRDNAKNTVYLQMNSLKPEDTAVYYCAAHAISYQSRYRYRYGSVDYWGQGTQVTVSS | high polyreactivity
22 | QVQLVESGGGLVKAGGSLSLSCAASGFTVYRYTMGWYRPAPGKEREVVARITYSGGSTYYADSVKVRFTISRDNAKNTVYLQLYCLKPVDSAVYYCNARSDFYSRYGYKYDYWGQGTQVTVSS | high polyreactivity

Row | Sequence | polyreactivity (PSR sort gate)
23 | QVQLVESGGGLVLAGGSLRLICAGSGRIFYTNTMGWYRQAPWKGRELVAAIRSGTRTYYADSVKGRFTISRDNAKNTFYLLMNILKPEATAVYYCAAYYSYYGGDYWGQGTQVTVSS | low polyreactivity
24 | QVQLVESGGGLVLAGGSLRLSCAASGRILGSYAMGWYRQAPGKERELVAGISWRGGRTSYADSVKGRFTISRDNAKNPVYLQMNSLKPEDTAVYYCATRSSSRKYGYWGQGTQVTVSS | high polyreactivity
25 | QVQLVESGGGLVLAGGSLRLSCAASGRIYVFYAMGWYRQAPGKEREFVATISYSGDTTYYADSVKGRFTISRDNAKNTVYLQMNSLTPEDTAVYYCAADQVPSYYYVPLGYDSWGQGTQVTVSS | low polyreactivity
26 | QVQLVESGGGLVLAGGSLRLSCAASGRTFELNALGWYRQAPGKERELVAAISWSGGSTYYADSVKGRFTISRDNAKNTVYLQMNSLKPEDTSVYYCAAQYQQGPFVKYYYWGQGPQVTVSS | high polyreactivity
27 | QVQLVESGGGLVLAGGSLRLSCAASGSTFGDYAMGWYRQAPGNERELVAAISARGASTYYADSVKGRFTISRDNAKNTVYLQMNSLKPEDTAVYYCAARYVSSGRRFDYWGQGTQVTVSS | high polyreactivity
28 | QVQLVESGGGLVLAGGSLRLSCAASGSTFTIYALGWYRQAPVKQRELVAAITSGGSTYADSVKRRFTISRDNAKNTVYLEMNSLKPEETAVDYCATVTFSHAQRTWYDYWGQGSQVTVSS | high polyreactivity
29 | QVQLVESGGGLVLAGGSLRLSCAASGTIFGYYAMGWYRQAPGKDRELVAAITSDGDTYYADSVKGRFTISRDNAKNTVYLQMNSLKPEDTAVYYCNATYGGPYYIQYDYWGQGTQVTVSS | low polyreactivity
30 | QVQLVESGGGLVLAGGSLSLSCAASGSIFNWYAMGWYRKAHGKERELVAAISWRGGSTYYADSVKGRFTISRDNAINSVYFQMNSLKPEDTAVYYCASDGGGDHMDYWGQGTQVSVSS | high polyreactivity
31 | QVQLVESGGGLVNAGVSLLLSCAASGYIFVQYAMGWNRQAHVKERELVAAISKSGSSTYYADSVKGRFTISRDNAKNTVFLLINSLKPADSAVYYCAVVYTYVSGFTYGYWGQGTQVIVSS | low polyreactivity
32 | QVQLVESGGGLVPAGASLRLSCAASGSTSYVYAMGWYRKAPGKERELVAAISGSGGRTYYADSVKGRFTISRDNAKNTVYLQMNSLKPEDTAVYYCNAMPRPSYPFDYWGQGTQVTVSS | high polyreactivity
33 | QVQLVESGGGLVPAGGSLRLSCAASGFIFSRYDMGCYRQAPGKERELVAAIDWSGDSTYYADSVKGRFTISRDNAKNTVYFQMNSLKPEDTAVYYCAAGQDGDSDWGQGTQVTVSS | low polyreactivity
34 | QVQLVESGGGLVPAGGSLRLSCAASGRIFVVYSMGWYRQAPGKERELVASISGGSTNYADSVKGRFTISRDNAKNTVYLQMNSLKPEDTAVYFCGMEYWGQGTQVTVSS | low polyreactivity
35 | QVQLVESGGGLVPAGGSLRLSCAASGRTFFKNAMGWYRQAPGKERELVARISWNGGDSTYYADSVKGRFTISRDNAKNTVYLQMNSLKPEDTAVYSCAADTSYRPGGSRHGYGYWGQGTQVTVSS | low polyreactivity
36 | QVQLVESGGGLVPAGGSLRLSCAASGRTFRYYGMGWYRQAPGTERELLAAISWRGGSTNYADSVKGRFTISRDNAKNTVYLQMNSLKREDTAVYYCAVGTVYLTYRGYEYWGQGTQVTVSS | high polyreactivity
37 | QVQLVESGGGLVPAGGSLRLSCAASGRTFYSYGMGWYRQAPGKERELVASISSSTGSTYYADSVKGRFTISRDNAKNTVYLQMNSLKPEDTAVYYCAKRYSWTRRYDYWGQGTQVTVSS | high polyreactivity
38 | QVQLVESGGGLVPAGGSLRLSCAASGRTVRRNAMGWYRHAPGKERELVADISNGDSTKYADSVKGRFTISRDNAKNTVYLQMNSVNPEDTAVYYCATEVSWHWYQQSVTRMDYWGQGTQVTVSS | low polyreactivity
39 | QVQLVESGGGLVPAGGSLRLSCAASGSIFPVYAMGWYRQAPGKERELVASISTGGSTYYADSVKGRFTISRDNAKNTVYLQMNSLKPEDNAVYYCDATGWAYGYGYWGQGTQVTVSS | low polyreactivity
40 | QVQLVESGGGLVPAGGSLRLSCAASGSTFAKYAMGWYRQAPGKERELVASIRLSGGSTYYADSVKGRFTISRDHAQNTVYLQMNSLKPEDTAVYYCNKQFATFYYGFHYYYWGQGTQVTVSS | low polyreactivity
41 | QVQLVESGGGLVPAGGSLRLSCAASGSTFEVNAMGWYRQAPGKERELVADITSGGSTNYADSVKGRFTISRDNAKNTVFLQMNSLKPEDTAVYFCARDDWFGFIRVQEMDYWGQGTQVTVSS | low polyreactivity
42 | QVQLVESGGGLVPAGGSLRLSCAASGSTFNGYPMGWYRQAPGKEREFVATITFSDGSTYYADSVKGRFTISRDNAKNTVYLQMNSLKPEDTAVYYCNVDSRIGYDYWGQGTQVTVSS | low polyreactivity
43 | QVQLVESGGGLVPAGGSLRLSCAASGSTFSDYAMGWYRQAPGKERELVASIDSGDSTNYADSVKGRFTISRDNAKNTVYLQMTSLKPEDTAVYFCAADYQNTGARYGYYYWGQGTQVTVSS | low polyreactivity

From the nanobody polyreactivity screen of Harvey et al. (2022)
